{"source": "the Human Domainome abundance scans (Beltran et al. 2025)", "parents": {"B1": {"name": "Zinc finger homeobox protein 4, residues 2183 to 2238; numbered along this chain, Q86UP3 (parent)", "chain": "SSRTRFTDYQLRVLQDFFDTNAYPKDDEIEQLSTVLNLPTRVIVVWFQNARQKARK"}}, "note": "± gives the uncertainty stated by the source.", "data": [{"variants_of": "B1", "assay": "abundance fitness (aPCA) (normalised: wild type 0, dead -1); higher = more abundant; growth selection in yeast, the domain comes from the species named", "conditions": "Homo sapiens", "values": [{"variant": "SSRTRFTGYQLRVLQDFFDTNAYPKDDEIEQLSTVLNLPTRVIVVWFQNARQKARK", "abundance fitness": "-0.225 ± 0.078"}, {"variant": "SSRTRFTIYQLRVLQDFFDTNAYPKDDEIEQLSTVLNLPTRVIVVWFQNARQKARK", "abundance fitness": "-0.511 ± 0.17"}, {"variant": "SSRTRFTVYQLRVLQDFFDTNAYPKDDEIEQLSTVLNLPTRVIVVWFQNARQKARK", "abundance fitness": "-0.282 ± 0.079"}, {"variant": "SSRTRFTAYQLRVLQDFFDTNAYPKDDEIEQLSTVLNLPTRVIVVWFQNARQKARK", "abundance fitness": "-0.106 ± 0.082"}, {"variant": "SSRTRFTLYQLRVLQDFFDTNAYPKDDEIEQLSTVLNLPTRVIVVWFQNARQKARK", "abundance fitness": "-0.229 ± 0.078"}, {"variant": "SSRTRFTTYQLRVLQDFFDTNAYPKDDEIEQLSTVLNLPTRVIVVWFQNARQKARK", "abundance fitness": "-0.257 ± 0.11"}, {"variant": "SSRTRFTPYQLRVLQDFFDTNAYPKDDEIEQLSTVLNLPTRVIVVWFQNARQKARK", "abundance fitness": "0.096 ± 0.11"}, {"variant": "SSRTRFTNYQLRVLQDFFDTNAYPKDDEIEQLSTVLNLPTRVIVVWFQNARQKARK", "abundance fitness": "-0.351 ± 0.12"}, {"variant": "SSRTRFTYYQLRVLQDFFDTNAYPKDDEIEQLSTVLNLPTRVIVVWFQNARQKARK", "abundance fitness": "-0.662 ± 0.14"}, {"variant": "SSRTRFTWYQLRVLQDFFDTNAYPKDDEIEQLSTVLNLPTRVIVVWFQNARQKARK", "abundance fitness": "-0.58 ± 0.097"}, {"variant": "SSRTRFTMYQLRVLQDFFDTNAYPKDDEIEQLSTVLNLPTRVIVVWFQNARQKARK", "abundance fitness": "-0.125 ± 0.1"}, {"variant": "SSRTRFTRYQLRVLQDFFDTNAYPKDDEIEQLSTVLNLPTRVIVVWFQNARQKARK", "abundance fitness": "-0.309 ± 0.094"}, {"variant": "SSRTRFTEYQLRVLQDFFDTNAYPKDDEIEQLSTVLNLPTRVIVVWFQNARQKARK", "abundance fitness": "-0.151 ± 0.099"}, {"variant": "SSRTRLTDYQLRVLQDFFDTNAYPKDDEIEQLSTVLNLPTRVIVVWFQNARQKARK", "abundance fitness": "-0.122 ± 0.071"}, {"variant": "SSRTRQTDYQLRVLQDFFDTNAYPKDDEIEQLSTVLNLPTRVIVVWFQNARQKARK", "abundance fitness": "-0.568 ± 0.13"}, {"variant": "SSRTRRTDYQLRVLQDFFDTNAYPKDDEIEQLSTVLNLPTRVIVVWFQNARQKARK", "abundance fitness": "-0.726 ± 0.099"}, {"variant": "SSRTRKTDYQLRVLQDFFDTNAYPKDDEIEQLSTVLNLPTRVIVVWFQNARQKARK", "abundance fitness": "-0.522 ± 0.17"}, {"variant": "SSRTRETDYQLRVLQDFFDTNAYPKDDEIEQLSTVLNLPTRVIVVWFQNARQKARK", "abundance fitness": "-0.344 ± 0.17"}, {"variant": "SSRTRCTDYQLRVLQDFFDTNAYPKDDEIEQLSTVLNLPTRVIVVWFQNARQKARK", "abundance fitness": "-0.094 ± 0.095"}, {"variant": "SSRTRYTDYQLRVLQDFFDTNAYPKDDEIEQLSTVLNLPTRVIVVWFQNARQKARK", "abundance fitness": "-0.124 ± 0.1"}, {"variant": "SSRTRDTDYQLRVLQDFFDTNAYPKDDEIEQLSTVLNLPTRVIVVWFQNARQKARK", "abundance fitness": "-0.09 ± 0.12"}, {"variant": "SSRTRHTDYQLRVLQDFFDTNAYPKDDEIEQLSTVLNLPTRVIVVWFQNARQKARK", "abundance fitness": "-0.328 ± 0.11"}, {"variant": "SSRTRWTDYQLRVLQDFFDTNAYPKDDEIEQLSTVLNLPTRVIVVWFQNARQKARK", "abundance fitness": "-0.257 ± 0.13"}, {"variant": "SSRTRGTDYQLRVLQDFFDTNAYPKDDEIEQLSTVLNLPTRVIVVWFQNARQKARK", "abundance fitness": "-0.335 ± 0.092"}, {"variant": "SSRTRVTDYQLRVLQDFFDTNAYPKDDEIEQLSTVLNLPTRVIVVWFQNARQKARK", "abundance fitness": "-0.133 ± 0.078"}, {"variant": "SSRTRPTDYQLRVLQDFFDTNAYPKDDEIEQLSTVLNLPTRVIVVWFQNARQKARK", "abundance fitness": "-0.697 ± 0.1"}, {"variant": "SSRTRMTDYQLRVLQDFFDTNAYPKDDEIEQLSTVLNLPTRVIVVWFQNARQKARK", "abundance fitness": "0.111 ± 0.1"}, {"variant": "SSRTRTTDYQLRVLQDFFDTNAYPKDDEIEQLSTVLNLPTRVIVVWFQNARQKARK", "abundance fitness": "-0.266 ± 0.086"}, {"variant": "SSRTRNTDYQLRVLQDFFDTNAYPKDDEIEQLSTVLNLPTRVIVVWFQNARQKARK", "abundance fitness": "-0.375 ± 0.11"}, {"variant": "SSRTRATDYQLRVLQDFFDTNAYPKDDEIEQLSTVLNLPTRVIVVWFQNARQKARK", "abundance fitness": "-0.654 ± 0.1"}, {"variant": "SSRTRITDYQLRVLQDFFDTNAYPKDDEIEQLSTVLNLPTRVIVVWFQNARQKARK", "abundance fitness": "-0.09 ± 0.091"}, {"variant": "SSRTVFTDYQLRVLQDFFDTNAYPKDDEIEQLSTVLNLPTRVIVVWFQNARQKARK", "abundance fitness": "0.133 ± 0.13"}, {"variant": "SSRTIFTDYQLRVLQDFFDTNAYPKDDEIEQLSTVLNLPTRVIVVWFQNARQKARK", "abundance fitness": "0.238 ± 0.13"}, {"variant": "SSRTEFTDYQLRVLQDFFDTNAYPKDDEIEQLSTVLNLPTRVIVVWFQNARQKARK", "abundance fitness": "0.218 ± 0.22"}, {"variant": "SSRTTFTDYQLRVLQDFFDTNAYPKDDEIEQLSTVLNLPTRVIVVWFQNARQKARK", "abundance fitness": "0.22 ± 0.13"}, {"variant": "SSRTNFTDYQLRVLQDFFDTNAYPKDDEIEQLSTVLNLPTRVIVVWFQNARQKARK", "abundance fitness": "0.358 ± 0.14"}, {"variant": "SSRTDFTDYQLRVLQDFFDTNAYPKDDEIEQLSTVLNLPTRVIVVWFQNARQKARK", "abundance fitness": "0.338 ± 0.29"}, {"variant": "SSRTWFTDYQLRVLQDFFDTNAYPKDDEIEQLSTVLNLPTRVIVVWFQNARQKARK", "abundance fitness": "-0.11 ± 0.17"}, {"variant": "SSRTLFTDYQLRVLQDFFDTNAYPKDDEIEQLSTVLNLPTRVIVVWFQNARQKARK", "abundance fitness": "0.193 ± 0.1"}, {"variant": "SSRTYFTDYQLRVLQDFFDTNAYPKDDEIEQLSTVLNLPTRVIVVWFQNARQKARK", "abundance fitness": "0.213 ± 0.15"}, {"variant": "SSRTGFTDYQLRVLQDFFDTNAYPKDDEIEQLSTVLNLPTRVIVVWFQNARQKARK", "abundance fitness": "-0.109 ± 0.11"}, {"variant": "SSRTKFTDYQLRVLQDFFDTNAYPKDDEIEQLSTVLNLPTRVIVVWFQNARQKARK", "abundance fitness": "0.195 ± 0.2"}, {"variant": "SSRTCFTDYQLRVLQDFFDTNAYPKDDEIEQLSTVLNLPTRVIVVWFQNARQKARK", "abundance fitness": "0.272 ± 0.11"}, {"variant": "SSRTMFTDYQLRVLQDFFDTNAYPKDDEIEQLSTVLNLPTRVIVVWFQNARQKARK", "abundance fitness": "0.309 ± 0.15"}, {"variant": "SSRTPFTDYQLRVLQDFFDTNAYPKDDEIEQLSTVLNLPTRVIVVWFQNARQKARK", "abundance fitness": "0.001 ± 0.12"}, {"variant": "SSRTQFTDYQLRVLQDFFDTNAYPKDDEIEQLSTVLNLPTRVIVVWFQNARQKARK", "abundance fitness": "-0.241 ± 0.24"}, {"variant": "SSRTHFTDYQLRVLQDFFDTNAYPKDDEIEQLSTVLNLPTRVIVVWFQNARQKARK", "abundance fitness": "0.194 ± 0.15"}]}]}
